B1: HDV Ribozyme (parent)
chain: GGCCGGCAUGGUCCCAGCCUCCUCGCUGGCGCCGGCUGGGCAACAUUCCGAGGGGACCGUCCCCUCGGUAAUGGCGAAUGGGACCCA

Variants of: B1
Experiment: self-cleavage, relative activity (ratio to wild type); higher = more cleavage; co-transcriptional

Variant | self-cleavage
GGCCGGCAUGUUCCCAGCCUCCUCGCUGGCGCCGGCUGGGCAACAUUCCGAGGGGACCGUCCCCUCGGUAAUGGCGAAAGGGACCCA [G11U U79A] | 0.148
GGCCGGCAUGUUCCCAGCCUCCUCGCUGGCGCCGGCUGGGCAACAUUCCGAGGGGACCGUCCCCUCGGUAAUGGCGAAGGGGACCCA [G11U U79G] | 0.231
GGCCGGCAUGUUCCCAGCCUCCUCGCUGGCGCCGGCUGGGCAACAUUCCGAGUGGACCGUCCCCUCGGUAAUGGCGAAUGGGACCCA [G11U G53U] | 0.385
GGCCGGCAUGUUCCCAGCCUCCUCGCUGGCGCCGGCUGGGCAACAUUCCGAGCGGACCGUCCCCUCGGUAAUGGCGAAUGGGACCCA [G11U G53C] | 0.284
GGCCGGCAUGUUCCCAGCCUCCUCGCUGGCGCCGGCUGGGCAACAUUCCGAGGGGACCGUCCCCUCGGUAAUGGCGAAUGAGACCCA [G11U G81A] | 0.0623
GGCCGGCAUGUUCCCAGCCUCCUCGCUGGCGCCGGCUGGGCAACAUUCCGAAGGGACCGUCCCCUCGGUAAUGGCGAAUGGGACCCA [G11U G52A] | 0.375
GGCCGGCAUGUUCCCAGCCUCCUCGCUGGCGCCGGCUGGGCAACAUUCCGACGGGACCGUCCCCUCGGUAAUGGCGAAUGGGACCCA [G11U G52C] | 0.218
GGCCGGCAUGUUCCCAGCCUCCUCGCUGGCGCCGGCUGGGCAACAUUCCGAGGGGACCCUCCCCUCGGUAAUGGCGAAUGGGACCCA [G11U G59C] | 0.297
GGCCGGCAUGUUCCCAGCCUCCUCGCUGGCGCCGGCUGGGCAACAUUCCGAGGGGACCAUCCCCUCGGUAAUGGCGAAUGGGACCCA [G11U G59A] | 0.499
GGCCGGCAUGUUCCCAGCCUCCUCGCUGGCGCCGGCUGGGCAACAUUCCGAGGGGACCUUCCCCUCGGUAAUGGCGAAUGGGACCCA [G11U G59U] | 0.41
GGCCGGCAUGUUCCCAGCCUCCUCGCUGGCGCCGGCUGGGCAACAUUCCGAGGGGACCGUCCCCUCGGUAAUGGGGAAUGGGACCCA [G11U C75G] | 0.0264
GGCCGGCAUGUUCCCAGCCUCCUCGCUGGCGCCGGCUGGGCAACAUUCCGAGGGGACCGUCCCCUCGGUAAUGGAGAAUGGGACCCA [G11U C75A] | 0.0231
GGCCGGCAUGUUCCCAGCCUCCUCGCUGGCGCCGGCUGGGCAACAUUCCGAGGCGACCGUCCCCUCGGUAAUGGCGAAUGGGACCCA [G11U G54C] | 0.57
GGCCGGCAUGUUCCCAGCCUCCUCGCUGGCGCCGGCUGGGCAACAUUCCGAGGAGACCGUCCCCUCGGUAAUGGCGAAUGGGACCCA [G11U G54A] | 0.313
GGCCGGCAUGUUCCCAGCCUCCUCGCUGGCGCCGGCUGGGCAACAUCCCGAGGGGACCGUCCCCUCGGUAAUGGCGAAUGGGACCCA [G11U U47C] | 0.156
GGCCGGCAUGUUCCCAGCCUCCUCGCUGGCGCCGGCUGGGCAACAUUCCGAGGGGACCGUCCCCUCGGUAAUGGCGAAUGGGAACCA [G11U C84A] | 1.12
GGCCGGCAUGUUCCCAGCCUCCUCGCUGGCGCCGGCUGGGCAACAUUCCGAGGGGACCGUCCCCUCGGUAAUGGCGAAUGGGAUCCA [G11U C84U] | 0.292
GGCCGGCAUGUUCCCAGCCUCCUCACUGGCGCCGGCUGGGCAACAUUCCGAGGGGACCGUCCCCUCGGUAAUGGCGAAUGGGACCCA [G11U G25A] | 0
GGCCGGCAUGUUCCCAGCCUCCUCCCUGGCGCCGGCUGGGCAACAUUCCGAGGGGACCGUCCCCUCGGUAAUGGCGAAUGGGACCCA [G11U G25C] | 0.104
GGCCGGCAUGUUCCCAGCCUCCUCGCUGGCGCCGGCUGGGCAACAUUCCUAGGGGACCGUCCCCUCGGUAAUGGCGAAUGGGACCCA [G11U G50U] | 0.583
GGCCGGCAUGUUCCCAGCCUCCGCGCUGGCGCCGGCUGGGCAACAUUCCGAGGGGACCGUCCCCUCGGUAAUGGCGAAUGGGACCCA [G11U U23G] | 0.134
GGCCGGCAUGUUCCCAGCCUCCUCGCUGACGCCGGCUGGGCAACAUUCCGAGGGGACCGUCCCCUCGGUAAUGGCGAAUGGGACCCA [G11U G29A] | 0.158

Variant | self-cleavage
GGCCGGCAUGUUCCCAGCCUCCUCGCUGUCGCCGGCUGGGCAACAUUCCGAGGGGACCGUCCCCUCGGUAAUGGCGAAUGGGACCCA [G11U G29U] | 0.0536
GGCCGGCAUGUUCCCAGCCUCCUCGCUGCCGCCGGCUGGGCAACAUUCCGAGGGGACCGUCCCCUCGGUAAUGGCGAAUGGGACCCA [G11U G29C] | 0.0231
GGCCGGCAUGUUCCCAGCCUCCUCGCUGGCGCCGCCUGGGCAACAUUCCGAGGGGACCGUCCCCUCGGUAAUGGCGAAUGGGACCCA [G11U G35C] | 0.0449
GGCCGGCAUGUUCCCAGCCUCCUCGCUGGCGCCGACUGGGCAACAUUCCGAGGGGACCGUCCCCUCGGUAAUGGCGAAUGGGACCCA [G11U G35A] | 0.241
GGCCGGCAUGUUCCCAGCCUCCUCGCUGGCGCCGGCUGGACAACAUUCCGAGGGGACCGUCCCCUCGGUAAUGGCGAAUGGGACCCA [G11U G40A] | 0.387
GGCCGGCAUGUUCCCAGCCUCCUCGCUGGCGCCGGCUGGGCAACAUUCCGAGGGGACCGUCCCCUCGGAAAUGGCGAAUGGGACCCA [G11U U69A] | 0.317
GGCCGGCAUGUUCCCAGCCUCCUCGCUGGCGCCGGCUGGGCAACAUUCCGAGGGGACCGUCCCCUCGGGAAUGGCGAAUGGGACCCA [G11U U69G] | 0.309
GGCCGGCAUGUUCCCAGCCUCCUCGCUGGCGCCGGCUGGGCAACAUUCCGAGGGGACCGUCCCCUCGGCAAUGGCGAAUGGGACCCA [G11U U69C] | 0.161
GGCCGGCAUGUUCCCAGCCUCCUCGCCGGCGCCGGCUGGGCAACAUUCCGAGGGGACCGUCCCCUCGGUAAUGGCGAAUGGGACCCA [G11U U27C] | 0.388
GGCCGGCAUGUUCCCAGCCUCCUCGCUGGCGCCGGCUGGGCAACAUUCCGAGGGAACCGUCCCCUCGGUAAUGGCGAAUGGGACCCA [G11U G55A] | 0.463
GGCCGGCAUGUUCCCAGCCUCCUCGCUGGCGCCGGCUGGGCAACAUUCCGAGGGUACCGUCCCCUCGGUAAUGGCGAAUGGGACCCA [G11U G55U] | 0.436
GGCCGGCAUGUUCCCAGCCUCCUCGCUGGCGCCGGCUGGGCAACAUUCCGAGGGCACCGUCCCCUCGGUAAUGGCGAAUGGGACCCA [G11U G55C] | 0.35
GGCCGGCAUGUUCCCAGCCUCCUCGCUGGCGCCGGCUGGGCAACAUUCCGAGGGGACCGUCCCCUAGGUAAUGGCGAAUGGGACCCA [G11U C66A] | 0.31
GGCCGGCAUGUUCCCAGCCUCCUCGCUGGCGCCGGCUGAGCAACAUUCCGAGGGGACCGUCCCCUCGGUAAUGGCGAAUGGGACCCA [G11U G39A] | 0.128
GGCCGGCAUGUUCCCAGCCUCCUCGCUGGCGCCGGCUGGGCAACAUUCCGAGGGGACCGUCCCCUCGGUAAGGGCGAAUGGGACCCA [G11U U72G] | 0.145
GGCCGGCAUGUUCCCAGCCUCCUCGCUGGCGCCGGCUGGGCAACAUUCCGAGGGGACCGUCCCCUCGGUAAAGGCGAAUGGGACCCA [G11U U72A] | 0.287
GGCCGGCAUGUUCCCAGCCUCCUCGCUGGCGCCGGCUGGGCAACAGUCCGAGGGGACCGUCCCCUCGGUAAUGGCGAAUGGGACCCA [G11U U46G] | 0.285
GGCCGGCAUGUUCCCAGCCUCCUCGCUGGCGCCGGCUGGGCAACAAUCCGAGGGGACCGUCCCCUCGGUAAUGGCGAAUGGGACCCA [G11U U46A] | 0.18
GGCCGGCAUGUUCCCAGCCUCCUCGCUGGCGCCGGCUGGGCAACAUUCCGAGGGGACCGUCCCCUCGGUAAUGGCAAAUGGGACCCA [G11U G76A] | 0.292
GGCCGGCAUGGACCCGGCCUCCUCGCUGGCGCCGGCUGGGCAACAUUCCGAGGGGACCGUCCCCUCGGUAAUGGCGAAUGGGACCCA [U12A A16G] | 0.383
GGCCGGCAUGGACCCUGCCUCCUCGCUGGCGCCGGCUGGGCAACAUUCCGAGGGGACCGUCCCCUCGGUAAUGGCGAAUGGGACCCA [U12A A16U] | 0.32
GGCCGGCAUGUUCCCAGCCUCCUCGCUGGCGCCGGCUGGGCAACAUUCCGAGGGGACCGUCCCCGCGGUAAUGGCGAAUGGGACCCA [G11U U65G] | 0.542

Variant | self-cleavage
GGCCGGCAUGUUCCCAGCCUCCUCGCUGGCGCCGGCUGGGCAACAUUCCGAGGGGACCGUCCCCCCGGUAAUGGCGAAUGGGACCCA [G11U U65C] | 0.19
GGCCGGCAUGUUCCCAGCCUCCUCGCUGGCGCCGGCUGGGCAACAUUCCGAGGGGACCGUCCCUUCGGUAAUGGCGAAUGGGACCCA [G11U C64U] | 0.519
GGCCGGCAUGUUCCCAGCCUCCUCGCUGGCGCCGGCUGGGCAACAUUCCGAGGGGACCGUCCCCUCGGUAAUGGCGAAUGGCACCCA [G11U G82C] | 0.117
GGCCGGCAUGUUCCCAGCCUCCUCGCUGGCGCCGGCUGGGCAACAUUCCGAGGGGACCGUCCCCUCGGUAAUGGCGAAUGGAACCCA [G11U G82A] | 0.0678
GGCCGGCAUGUUCCCAGCCUCCUCGCUGGCGCCGGCUGGGCAACAUUCCGAGGGGACCGUCCCCUCCGUAAUGGCGAAUGGGACCCA [G11U G67C] | 0.262
GGCCGGCAUGUUCCCAUCCUCCUCGCUGGCGCCGGCUGGGCAACAUUCCGAGGGGACCGUCCCCUCGGUAAUGGCGAAUGGGACCCA [G11U G17U] | 0.308
GGCCGGCAUGUUCCCACCCUCCUCGCUGGCGCCGGCUGGGCAACAUUCCGAGGGGACCGUCCCCUCGGUAAUGGCGAAUGGGACCCA [G11U G17C] | 0.203
GGCCGGCAUGUUCCCAACCUCCUCGCUGGCGCCGGCUGGGCAACAUUCCGAGGGGACCGUCCCCUCGGUAAUGGCGAAUGGGACCCA [G11U G17A] | 0.45
GGCCGGCAUGUUCCCAGCCUCCUCGCUCGCGCCGGCUGGGCAACAUUCCGAGGGGACCGUCCCCUCGGUAAUGGCGAAUGGGACCCA [G11U G28C] | 0.0992
GGCCGGCAUGUUCCCAGCCUCCUCGCUGGCGCCGGCUUGGCAACAUUCCGAGGGGACCGUCCCCUCGGUAAUGGCGAAUGGGACCCA [G11U G38U] | 0.0961
GGCCGGCAUGUUCCCAGCCUCCUCGCUGGCGCCGGCUGGGCAACAUUCCGAGGGGACCGGCCCCUCGGUAAUGGCGAAUGGGACCCA [G11U U60G] | 0.381
GGCCGGCAUGUUCCCAGCCUCCUCGCUGGCGCCGGCUGGGCAACAUUCCGAGGGGACCGUCCCCUCGAUAAUGGCGAAUGGGACCCA [G11U G68A] | 0.205
GGCCGGCAUGUUCCCAGCCUCCUCGCUGGCGCCGGCUGGGCAACAUUCCGAGGGGACCGUCCCCUCGUUAAUGGCGAAUGGGACCCA [G11U G68U] | 0.17
GGCCGGCAUGUUCCCAGCCUCCUCGCUGGCGCCGGCUGGGCAACAUUCCGAGGGGACCGUCCCCUCGCUAAUGGCGAAUGGGACCCA [G11U G68C] | 0.297
GGCCGGCAUGUUCCCAGCCUCCUCGCUGGCGCCGGCUGGGCAACAUUCCGAGGGGACCGUCCCCUCGGUAAUUGCGAAUGGGACCCA [G11U G73U] | 0.111
GGCCGGCAUGUUCCCAGCCUCCUCGCUGGCCCCGGCUGGGCAACAUUCCGAGGGGACCGUCCCCUCGGUAAUGGCGAAUGGGACCCA [G11U G31C] | 0.146
GGCCGGCAUGUUCCCAGCCUCCUCGCUGGCGCCGGCCGGGCAACAUUCCGAGGGGACCGUCCCCUCGGUAAUGGCGAAUGGGACCCA [G11U U37C] | 0.208
GGCCGGCAUGUUCCCAGCCCCCUCGCUGGCGCCGGCUGGGCAACAUUCCGAGGGGACCGUCCCCUCGGUAAUGGCGAAUGGGACCCA [G11U U20C] | 0.0248
GGCCGGCAUGUUCCCAGCCUCCUCGCUGGCGCCGGCUGGGCAACAUUCCGAGGGGACCGUCCCCUCGGUAAUGACGAAUGGGACCCA [G11U G74A] | 0.114
GGCCGGCAUGUUCCCAGCCUCCUCGCUGGCGCCGGCUGGGCAACAUUCCGAGGGGACCGUCCCCUCGGUAAUGCCGAAUGGGACCCA [G11U G74C] | 0.0845
